Values belong to the binder of their own block, whether it stands above or below them. Non-standard residues stand in square brackets, D forms with d. No end group written: not given here. pS = N[C@@H](COP(=O)(O)O)C(=O)O
B3: 14-3-3σ (natural protein)
chain: MERASLIQKAKLAEQAERYEDMAAFMKGAVEKGEELSCEERNLLSVAYKNVVGGQRAAWRVLSSIEQKSNEEGSEEKGPEVREYREKVETELQGVCDTVLGLLDSHLIKEAGDAESRVFYLKMKGDYYRYLAEVATGDDKKRIIDSARSAYQEAMDISKKEMPPTNPIRLGLALNFSVFHYEIANSPEEAISLAKTTFDEAMADLHTLSEDSYKDSTLIMQLLRDNLTLWTADNAGEEGGEAPQEPQS

How the values were obtained:
[1] = molecular target: T1, 14-3-3σ covalently bound to molecular glue 23 (UniProt P31947 1-248, C38 covalently bound to compound 23 (chloroacetamide warhead)); test: SPR; 14-3-3σ covalently bound to molecular glue 23
T1 chain: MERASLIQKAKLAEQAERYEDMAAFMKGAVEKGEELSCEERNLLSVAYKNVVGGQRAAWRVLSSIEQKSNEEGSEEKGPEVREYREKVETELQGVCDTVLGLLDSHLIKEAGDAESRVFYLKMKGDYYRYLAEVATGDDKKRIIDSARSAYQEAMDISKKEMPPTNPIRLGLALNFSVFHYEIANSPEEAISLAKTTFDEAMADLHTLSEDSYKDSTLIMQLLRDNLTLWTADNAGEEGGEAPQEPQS

[2] = molecular target: B3; test: FP; 100 uM compound 80
[3] = molecular target: B3; test: FP; 100 uM compound 86
[4] = molecular target: B3; test: FP; 100 uM compound 70
[5] = molecular target: B3; test: FP; 100 uM compound 78
[6] = molecular target: B3; test: FP; 100 uM compound 29
[7] = molecular target: B3; test: FP; DMSO
[8] = molecular target: B3; test: FP; 100 uM compound 32
[9] = molecular target: B3; test: FP; 100 uM compound 37
[10] = molecular target: B3; test: FP; 100 uM compound 79
[11] = molecular target: B3; test: FP; 100 uM compound 83
[12] = molecular target: T2, B-RAF 365 (10mer) (Homo sapiens, not fully specified); test: FP; 100 uM compound 29
T2 chain: DRSS[pS]APNVH

[13] = molecular target: T2, B-RAF 365 (10mer); test: FP; DMSO
[14] = molecular target: T2, B-RAF 365 (10mer); test: FP; 100 uM compound 86
[15] = molecular target: T2, B-RAF 365 (10mer); test: FP; 100 uM compound 23
[16] = molecular target: T2, B-RAF 365 (10mer); test: FP; 100 uM compound 32
[17] = molecular target: T2, B-RAF 365 (10mer); test: FP; 100 uM compound 37
[18] = molecular target: B3; test: FP; 100 uM compound 19
[19] = molecular target: B3; test: FP; 100 uM compound 30
[20] = molecular target: B3; test: FP; DMSO (reference for compound 80)
[21] = molecular target: B3; test: FP; DMSO (reference for compounds 12, 18, 21, 36, 39, 40)
[22] = molecular target: B3; test: FP; 100 uM compound 40
[23] = molecular target: B3; test: FP; DMSO (reference for compound 8)
[24] = molecular target: B3; test: FP; DMSO (reference for compound 11)
[25] = molecular target: B3; test: FP; 100 uM compound 12
[26] = molecular target: B3; test: FP; 100 uM compound 36
[27] = molecular target: B3; test: FP; 100 uM compound 21
[28] = molecular target: B3; test: FP; 100 uM compound 32
[29] = molecular target: B3; test: FP; 100 uM compound 33
[30] = molecular target: B3; test: FP; 100 uM compound 11
[31] = molecular target: B3; test: FP; DMSO (reference for compounds 19, 33)
[32] = molecular target: B3; test: FP; 100 uM compound 31
[33] = molecular target: B3; test: FP; DMSO (reference for compound 70)
[34] = molecular target: B3; test: FP; DMSO (reference for compounds 24, 30, 31)
[35] = molecular target: B3; test: FP; 100 uM compound 46
[36] = molecular target: B3; test: FP; 100 uM compound 8
[37] = molecular target: B3; test: FP; 100 uM compound 39
[38] = molecular target: B3; test: FP; 100 uM compound 18
[39] = molecular target: B3; test: FP; 100 uM compound 24
[40] = molecular target: B3; test: FP; 100 uM compound 38
[41] = molecular target: T3, 14-3-3σ, tagged with a Twin-Strep tag (UniProt P31947 1-248); test: SPR
T3 chain: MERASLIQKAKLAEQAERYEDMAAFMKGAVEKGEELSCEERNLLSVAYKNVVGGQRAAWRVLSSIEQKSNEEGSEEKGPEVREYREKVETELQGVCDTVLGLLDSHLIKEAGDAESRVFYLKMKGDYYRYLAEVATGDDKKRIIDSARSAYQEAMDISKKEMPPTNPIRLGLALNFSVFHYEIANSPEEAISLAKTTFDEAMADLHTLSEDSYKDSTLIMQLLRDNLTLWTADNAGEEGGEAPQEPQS

[42] = molecular target: B3; test: FP; 100 uM compound 22
[43] = molecular target: B3; test: FP; 100 uM compound 23

Kd [1]: 6.3 nM
B1: acetylated 12-mer B-RAF peptide (peptide)
chain: DRSSSAPNVHIN
modifications: not fully specified (residue 5, N-terminus); also: phosphoserine at 365, position in chain not mapped

Kd [2]: 420 nM
Kd [18]: 213 nM
Kd [19]: 780 nM
Kd [20]: 4600 nM
Kd [21]: 4200 nM
Kd [22]: 320 nM
Kd [23]: 6700 nM
Kd [24]: 1320 nM
Kd [25]: 190 nM
Kd [26]: 240 nM
Kd [27]: 480 nM
Kd [28]: 140 nM
Kd [29]: 230 nM
Kd [30]: 400 nM
Kd [31]: 3050 nM
Kd [32]: 1420 nM
Kd [33]: 5510 nM
Kd [34]: 2280 nM
Kd [35]: 170 nM
Kd [36]: 6600 nM
Kd [37]: 420 nM
Kd [11]: 102 nM
Kd [38]: 280 nM
Kd [39]: 110 nM
Kd [40]: 218 nM
B4: FAM-labeled C-RAF259 peptide (10-mer) (peptide)
chain: QRSTSTPNVH
modifications: also: phosphoserine at S259, site in chain not given here, FAM label, site not given here

Kd [1]: 1.7 nM
Kd [41]: 2000 nM
B5: acetylated 12-mer A-RAF peptide (peptide)
chain: IRSTSTPNVHMV
modifications: not fully specified (residue 5, N-terminus); also: phosphoserine at 214, position in chain not mapped

Kd [1]: 1.2 nM
B6: acetylated 12-mer C-RAF peptide (peptide)
chain: QRSTSTPNVHMV
modifications: not fully specified (residue 5, N-terminus); also: phosphoserine at 259, position in chain not mapped

Second part, the binder before the results:

B2: 15-mer B-RAF peptide (peptide)
chain: GQRDRSSSAPNVHIN
modifications: also: phosphoserine at S365, site in chain not given here
Kd [2]: 220 nM
Kd [3]: 95 nM
Kd [4]: 70 nM
Kd [5]: 55 nM
Kd [6]: 14 nM
Kd [7]: 2240 nM
Kd [8]: 245 nM
Kd [9]: 25 nM
Kd [10]: 60 nM
Kd [11]: 94 nM

Binder: B3
Kd [12]: 140 nM
Kd [13]: 650 nM
Kd [14]: 155 nM
Kd [15]: 105 nM
Kd [16]: 112 nM
Kd [17]: 52 nM

B7: 15-mer C-RAF peptide (peptide)
peptide: SQRQRSTSTPNVHMV
modifications: also: phosphoserine at S259, site in chain not given here
Kd [2]: 332 nM
Kd [3]: 140 nM
Kd [4]: 100 nM
Kd [9]: 136 nM
Kd [10]: 135 nM
Kd [11]: 145 nM

B8: 15-mer A-RAF peptide (peptide)
chain: LQRIRSTSTPNVHMV
modifications: also: phosphoserine at S214, site in chain not given here
Kd [42]: 9 nM
Kd [2]: 1100 nM
Kd [43]: 5 nM
Kd [3]: 140 nM
Kd [4]: 110 nM
Kd [5]: 120 nM
Kd [6]: 30 nM
Kd [8]: 50 nM
Kd [9]: 25 nM
Kd [10]: 115 nM
Kd [11]: 265 nM
